# Values of other authors, collected in US10385405B2, “Gene expression markers of tumor resistance to HER2 inhibitor treatment” (GENENTECH, INC., priority 2007, dated 2019).
# Assays:
# [1] = test system: incurable, locally advanced, recurrent or metastatic solid tumors
# [2] = test system: trastuzumab-resistant models harboring PTEN loss or PIK3CA activating mutations
Molecule,tolerability ([1]; given intravenously every 3 weeks),confirmed partial responses ([1]; in vivo),tumor regression ([1]; patients evaluable for response),"pharmacokinetics, linearity (doses of 2.0-15 mg/kg)",antibodies to pertuzumab (in vivo),sensitivity of trastuzumab-resistant models [2]
Pertuzumab: HER dimerization inhibitor antibody that inhibits HER2 forming heterodimers with other HER receptors,generally well tolerated,Two,3 of 20,linear,not detected,
CS(=O)(=O)N1CCN(Cc2cc3nc(-c4cccc5[nH]ncc45)nc(N4CCOCC4)c3s2)CC1 [GDC-0941],,,,,,sensitive
